Substitutions are numbered along the chain they refer to.
B1: CE115HA000 H chain altered form N31H (antibody, human IgG1, kappa, L234A L235A, N297A, name in Kabat numbering)
heavy: QVQLVESGGGVVQPGRSLRLSCAASGFTFSHAWMHWVRQAPGKGLEWVAQIKAKSNNYATYYAESVKGRFTISRDDSKNSLYLQMNSLKTEDTAVYYCRYVHYGAYYGVDAWGQGTTVTVSSASTKGPSVFPLAPSSKSTSGGTAALGCLVKDYFPEPVTVSWNSGALTSGVHTFPAVLQSSGLYSLSSVVTVPSSSLGTQTYICNVNHKPSNTKVDKKVEPKSCDKTHTCPPCPAPEAAGGPSVFLFPPKPKDTLMISRTPEVTCVVVDVSHEDPEVKFNWYVDGVEVHNAKTKPREEQYASTYRVVSVLTVLHQDWLNGKEYKCKVSNKALPAPIEKTISKAKGQPREPQVYTLPPSRCELTKNQVSLSCAVKGFYPSDIAVEWESNGQPENNYKTTPPVLDSDGSFFLVSKLTVDKSRWQQGNVFSCSVMHEALHNHYTQKSLSLSPDYKDDDDK
chain: EPKSSDKTHTCPPCPAPELLGGPSVFLFPPKPKDTLMISRTPEVTCVVVDVSHEDPEVKFNWYVDGVEVHNAKTKPREEQYNSTYRVVSVLTVLHQDWLNGKEYKCKVSNKALPAPIEKTISKAKGQPREPQVCTLPPSRDELTKNQVSLWCLVKGFYPSDIAVEWESNGQPENNYKTTPPVLDSDGSFFLYSKLTVDKSRWQQGNVFSCSVMHEALHNRYTQKSLSLSP
light: DIVMTQSPLSLPVTPGEPASISCRSSQSLVHSNRNTYLHWYQQKPGQAPRLLIYKVSNRFSGVPDRFSGSGSGTDFTLKISRVEAEDVGVYYCGQGTQVPYTFGQGTKLEIKRTVAAPSVFIFPPSDEQLKSGTASVVCLLNNFYPREAKVQWKVDNALQSGNSQESVTEQDSKDSTYSLSSTLTLSKADYEKHKVYACEVTHQGLSSPVTKSFNRGEC
notes: one-arm antibody
B2: CE115HA000 H chain altered form N53W (antibody, human IgG1, kappa, L234A L235A, N297A, name in Kabat numbering)
heavy: B1 heavy with H31N, N56W
chain: B1 chain
light: B1 light
notes: one-arm antibody
B3: CE115HA000 H chain altered form N53K (antibody, human IgG1, kappa, L234A L235A, N297A, name in Kabat numbering)
heavy: B1 heavy with H31N, N56K
chain: B1 chain
light: B1 light
notes: one-arm antibody
B4: CE115HA000 H chain altered form N54G (antibody, human IgG1, kappa, L234A L235A, N297A, name in Kabat numbering)
heavy: B1 heavy with H31N, N57G
chain: B1 chain
light: B1 light
notes: one-arm antibody
B5: CE115HA000 H chain altered form N53Q (antibody, human IgG1, kappa, L234A L235A, N297A, name in Kabat numbering)
heavy: B1 heavy with H31N, N56Q
chain: B1 chain
light: B1 light
notes: one-arm antibody
B6: CE115HA000 H chain altered form N53H (antibody, human IgG1, kappa, L234A L235A, N297A, name in Kabat numbering)
heavy: B1 heavy with H31N, N56H
chain: B1 chain
light: B1 light
notes: one-arm antibody
B7: CE115HA000 H chain altered form N31W (antibody, human IgG1, kappa, L234A L235A, N297A, name in Kabat numbering)
heavy: B1 heavy with H31W
chain: B1 chain
light: B1 light
notes: one-arm antibody
B8: CE115HA000 H chain altered form N53G (antibody, human IgG1, kappa, L234A L235A, N297A, name in Kabat numbering)
heavy: B1 heavy with H31N, N56G
chain: B1 chain
light: B1 light
notes: one-arm antibody
B9: CE115HA000 H chain altered form N53I (antibody, human IgG1, kappa, L234A L235A, N297A, name in Kabat numbering)
heavy: B1 heavy with H31N, N56I
chain: B1 chain
light: B1 light
notes: one-arm antibody
B10: CE115HA000 H chain altered form N53D (antibody, human IgG1, kappa, L234A L235A, N297A, name in Kabat numbering)
heavy: B1 heavy with H31N, N56D
chain: B1 chain
light: B1 light
notes: one-arm antibody
B11: CE115HA000 H chain altered form N53S (antibody, human IgG1, kappa, L234A L235A, N297A, name in Kabat numbering)
heavy: B1 heavy with H31N, N56S
chain: B1 chain
light: B1 light
notes: one-arm antibody
B12: CE115HA000 H chain altered form N31I (antibody, human IgG1, kappa, L234A L235A, N297A, name in Kabat numbering)
heavy: B1 heavy with H31I
chain: B1 chain
light: B1 light
notes: one-arm antibody
B13: CE115HA000 H chain altered form N53A (antibody, human IgG1, kappa, L234A L235A, N297A, name in Kabat numbering)
heavy: B1 heavy with H31N, N56A
chain: B1 chain
light: B1 light
notes: one-arm antibody
B14: CE115HA000 H chain altered form N54F (antibody, human IgG1, kappa, L234A L235A, N297A, name in Kabat numbering)
heavy: B1 heavy with H31N, N57F
chain: B1 chain
light: B1 light
notes: one-arm antibody
B15: CE115HA000 H chain altered form N31R (antibody, human IgG1, kappa, L234A L235A, N297A, name in Kabat numbering)
heavy: B1 heavy with H31R
chain: B1 chain
light: B1 light
notes: one-arm antibody
B16: CE115HA000 H chain altered form N31Y (antibody, human IgG1, kappa, L234A L235A, N297A, name in Kabat numbering)
heavy: B1 heavy with H31Y
chain: B1 chain
light: B1 light
notes: one-arm antibody
B17: CE115HA000 H chain altered form N31K (antibody, human IgG1, kappa, L234A L235A, N297A, name in Kabat numbering)
heavy: B1 heavy with H31K
chain: B1 chain
light: B1 light
notes: one-arm antibody
B18: CE115HA000 H chain altered form N53Y (antibody, human IgG1, kappa, L234A L235A, N297A, name in Kabat numbering)
heavy: B1 heavy with H31N, N56Y
chain: B1 chain
light: B1 light
notes: one-arm antibody
B19: CE115HA000 H chain altered form N31S (antibody, human IgG1, kappa, L234A L235A, N297A, name in Kabat numbering)
heavy: B1 heavy with H31S
chain: B1 chain
light: B1 light
notes: one-arm antibody
B20: CE115HA000 H chain altered form N31Q (antibody, human IgG1, kappa, L234A L235A, N297A, name in Kabat numbering)
heavy: B1 heavy with H31Q
chain: B1 chain
light: B1 light
notes: one-arm antibody
B21: CE115HA000 H chain altered form N54D (antibody, human IgG1, kappa, L234A L235A, N297A, name in Kabat numbering)
heavy: B1 heavy with H31N, N57D
chain: B1 chain
light: B1 light
notes: one-arm antibody
B22: CE115HA000 H chain altered form N54A (antibody, human IgG1, kappa, L234A L235A, N297A, name in Kabat numbering)
heavy: B1 heavy with H31N, N57A
chain: B1 chain
light: B1 light
notes: one-arm antibody

Target: T1, CD3 epsilon homodimer protein (UniProt P07766 23-126)
T1 construct: also called CD3 (CD3 epsilon)
T1 sequence (P07766 23-126): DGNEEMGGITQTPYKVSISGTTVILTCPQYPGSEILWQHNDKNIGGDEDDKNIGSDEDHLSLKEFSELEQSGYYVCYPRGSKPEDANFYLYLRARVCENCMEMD
Experiment: SPR Biacore T200, CD3 epsilon homodimer on chip, antibody as analyte;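 further: homodimer amine-coupled to a CM4 sensor chip, run at 25 °C in HBS-EP+ buffer, with kinetic parameters derived in Biacore T200 Evaluation Software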
Experimental: An appropriate amount of CD3 epsilon homodimer protein was immobilized onto Sensor chip CM4 (GE Healthcare Japan Corp.) by the amine coupling method. Then, the antibody having an appropriate concentration was injected thereto as an analyte and allowed to interact with the CD3 epsilon homodimer protein on the sensor chip. Then, the sensor chip was regenerated by the injection of 10 mmol/L glycine-HCl (pH 1.5). The assay was conducted at 25 degrees C., and HBS-EP+(GE Healthcare Japan Corp.) was used as a running buffer. […] Each parameter was calculated using Biacore T200 Evaluation Software (GE Healthcare Japan Corp.).
Specifically, when the amount of the antibody comprising CE115HA000 bound was defined as X and the amount of the H chain one-amino acid altered form bound was defined as Y, a value of Z (ratio of amounts bound)=Y/X was used.

Binder | KD ratio (KD of CE115HA000 / KD of altered form)
B1 | 0.96
B2 | 0.69
B3 | 0.79
B4 | 0.84
B5 | 1.05
B6 | 0.55
B7 | 1.07
B8 | 0.95
B9 | 0.57
B10 | 0.55
B11 | 0.59
B12 | 0.62
B13 | 0.55
B14 | 0.97
B15 | 0.98
B16 | 1.1
B17 | 0.97
B18 | 0.94
B19 | 0.67
B20 | 0.94
B21 | 0.59
B22 | 0.58

— patent US20240270846A1 (published 2024)
